Tests used:
[1] = target: MHC class II molecules on MHC class II-expressing Raji cells (human); experiment: cell-based or functional assay
[2] = target: MHC class II molecules on MHC class II-expressing Raji cells (human); experiment: BLI; immobilised sample, Raji cells in solution; FIG. 23
[3] = target: MHC class II molecules on MHC class II-expressing Raji cells (human); experiment: BLI; immobilised sample, Raji cells in solution; FIG. 24

Substance	Bioactivity (CCL4 release) [1] [%]	Bioactivity (binding) [2] [%]	Bioactivity (binding) [3] [%]
IMP321 Oxidation, 1% H2O2 at 37° C. (1 D = 1 day) (Fc fusion)	10		
IMP321, Acid pH 3.0 at RT (1 D = 1 day) (Fc fusion)	7		
IMP321, Acid pH 3.1 at RT (1 D = 1 day) (Fc fusion)	15		
IMP321, Alkali pH 9.2 at 37° C. (1 D = 1 day) (Fc fusion)	17		
IMP321, Light, 10 D = 10 days (Fc fusion)	73		75

Continued, values first:

Bioactivity (CCL4 release) [1] [%]	Bioactivity (binding) [2] [%]	Bioactivity (binding) [3] [%]	Substance
21			IMP321 Oxidation, 0.1% H2O2 at 37° C. (1 D = 1 day) (Fc fusion)
29			IMP321, Acid pH 3.6 at RT (1 D = 1 day) (Fc fusion)
87	74		IMP321, Light, 5 D = 5 days (Fc fusion)

— patent US20190361034A1
